According to paper PMC6250708, “Arabidopsis thaliana DGAT3 is a [2Fe-2S] protein involved in TAG biosynthesis” (Scientific Reports, 2018):

Target: the molecule itself
Assay: SEC; Superdex 200 10/300 GL, 4 °C, 100 mM triethanolamine pH 7.5, 300 mM NaCl, 5% glycerol, 1% n-octyl-β-D-glucopyranoside, 1 mM TCEP; column calibrated with Bio-Rad gel filtration standard; oligomer size assumes a globular protein

B1: Δ46AtDGAT3 (Arabidopsis thaliana acyl-CoA:diacylglycerol acyltransferase 3 lacking the putative chloroplast transit peptide) (domain or fragment, UniProt Q9C5W0 47-360, looked up)
chain: CNNEFADKGHVNYYIEPTRCGEEKEKVKVMEKEKKALKKKAKVLKSLSKNLDMFSSIGFGLDPEAGLVGEIQTKTISEATEILVKQLEQLKAEEKILKKQRKEEKAKAKAMKKMTEMDSESSSSSESSDSDCDKGKVVDMSSLRNKAKPVLEPLQPEATVATLPRIQEDAISCKNTSEALQIALQTSTIFPSMANPGQTLKTVEAVSVVGLPLNRVEVCMGGKCKRSGGALLLDEFQRAMTGFEGSAVACKCMGKCRDGPNVRVVKETDAVMTDSVRTPSKTLCVGVGLQDVETIVTSFFDEECSREGLGSVSY
notes: AtDGAT3 (At1g48300), Arabidopsis thaliana, 360-residue protein of the revised TAIR annotation (GenBank AEE32272); the 46 N-terminal residues (putative chloroplast transit peptide predicted by ChloroP 1.1) removed; calculated mass of the His-tagged protein 35.4 kDa; Cloned NdeI/XhoI into pET-32b(+), in frame with a C-terminal 6xHis tag; the NdeI site of the forward primer supplies a start …
stoichiometry N: 3
